Test results: patent publication US20100286027A1, “ANTI-BACTERIAL COMPOSITIONS” (priority 2008, published 2010)

Experiments:
Bacillus Subtilis (6633) = assay: BacTiter-Glo bacterial ATP content viability assay; settings: Bacillus Subtilis (6633), gram +; +/− SD, n = 3; >100 = activity detected but <50% inhibition
B. subtilis [1] = assay: Membrane polarity, DiBAC4 uptake by flow cytometry; settings: FIG. 11 Panels B and C; 5×10^5 bacteria in 100 μL, 2 hours at 37° C.
P. aeruginosa NB52019 = assay: MIC against aerobic gram negative bacteria; type: cell-based, Pseudomonas aeruginosa
[2] = tested on: Clostridium perfringens NB95001; type: cell-based; settings: anaerobic
B. subtilis [3] = assay: Bacterial growth inhibition (FIG. 14); type: cell-based, Bacillus subtilis; settings: FIG. 14 Panel A; increasing concentrations, relative to controls (100%)
Procedure: (§1) Values shown are relative to controls incubated in the absence of LRR domains (100%).

[4] = tested on: Propionibacterium acnes NB99001; assay: MIC against anaerobic bacteria; type: cell-based
E. coli = assay: Aggregation of E. coli in vitro, light microscopy; set-up: species or system Escherichia coli; settings: 10^6 E. coli in 1 ml PBS, 20 microgram/ml protein, 12 hours
Procedure: FIG. 4: Aggregation of E. coli in vitro following incubation with recombinant Nod2 LRR domains. E. coli (10^6) in 1 ml of PBS were incubated with either 20 microgram/ml BSA or purified recombinant Nod2 LRR domains for 12 hours. Aliquots of the cultures were inoculated on a coverslipped slide and analyzed by light microscopy using a 63× objective.
The Nod2 positive staining of the bacteria in the cytoplasm of cultured cells could either be a direct interaction or result from the colocalization of Nod2 and bacteria in an unidentified vesicular structure. In order to test the hypothesis that the interaction between Nod2 and E. coli was direct, purified recombinant LRR domains from Nod2 were incubated with E. coli (FIG. 4). […] This supports the hypothesis that Nod2 LRR domains can directly interact with E. coli.

S. aureus = assay: Bacterial growth inhibition (FIG. 14, FIG. 16); type: cell-based, Staphylococcus aureus
Procedure: as §1
This inhibition was unaffected by the co-administration of MDP, LPS, or PGN.

[5] = tested on: Pseudomonas aeruginosa (27853); assay: BacTiter-Glo bacterial ATP content viability assay; settings: gram −, +/− SD, n = 3, >100 = activity detected but <50% inhibition

B1: Nod2: purified recombinant LRR domain of Nod2 expressed in E. coli; human NOD2-LRR is SEQ ID NO: 3; ~30000 da (protein, listed as Homo sapiens)
chain: PAAPGEAKSVHAMPGFIWLIRSLYEMQEERLARKAARGLNVGHLKLTFCSVGPTECAALAFVLQHLRRPVALQLDYNSVGDIGVEQLLPCLGVCKALYLRDNNISDRGICKLIECALHCEQLQKLALFNNKLTDGCAHSMAKLLACRQNFLALRLGNNYITAAGAQVLAEGLRGNTSLQFLGFWGNRVGDEGAQALAEALGDHQSLRWLSLVGNNIGSVGAQALALMLAKNVMLEELCLEENHLQDEGVCSLAEGLKKNSSLKILKLSNNCITYLGAEALLQALERNDTILEVWLRGNTFSLEEVDKLGCRDTRLLL
notes: purified recombinant LRR domain of Nod2 expressed in E. coli; ~30000 da
antibacterial activity by bacterial ATP content (IC50), [LRR domain] (Bacillus Subtilis (6633)): 3.9 +/− 0.6 microgram/ml
membrane polarity of B. subtilis (depolarised bacteria taking up DiBAC4) (B. subtilis [1]): influence
minimal inhibitory concentration (MIC) (P. aeruginosa NB52019): >128 microgram/ml
minimal inhibitory concentration (MIC) [2]: 4 microgram/ml
growth of B. Subtilis (B. subtilis [3]): inhibits the growth
minimal inhibitory concentration (MIC) [4]: 4 microgram/ml
aggregation of E. coli (E. coli): aggregated and debris could be observed
growth of S. aureus (S. aureus; FIG. 14 Panel B, increasing concentrations, relative to controls (100%)): inhibits the growth
effect of co-administration of MDP, LPS, or PGN on inhibition of S. aureus growth (S. aureus; FIG. 16): unaffected
growth of S. aureus (S. aureus; FIG. 16): inhibited the growth
antibacterial activity by bacterial ATP content (IC50), [LRR domain] [5]: None detected
